How the values were obtained:
[1] = biological target: T1, µ-type opioid receptor (MOR), rat, wild type, fluorescently tagged, expressed in the PM of CHO-K1 cells … (rat, UniProt P33535 1-398); experiment: dependence of the DOR-MOR colocalisation index on the concentration of the soluble peptide (competition on cells)
T1 construct: whole, on cells; also called WT-MOR; MOR-Halo; not shown: Halo tag

[2] = biological target: the molecule itself; experiment: cell-based or functional assay
[3] = biological target: the molecule itself; experiment: calculated from KD (FIG. 2-4f)
Protocol: Accordingly, by subtracting the signal intensity after the quencher addition from that before the addition, we evaluated the percentages of the OPR molecules remaining in the PM (FIG. 2-s9; FIG. 2-5a). The time courses of the OPR numbers remaining in the PM after time 0 were examined in both the presence and absence of 0.2 μM agonists and ˜3 μM FAM-Xpep-TATs in the cytoplasm (FIG. 2-5b).

[4] = biological target: the molecule itself; experiment: inverse of the homodimer lifetime; no agonist
[5] = biological target: the molecule itself; experiment: inverse of the homodimer lifetime; after SNC-80
[6] = biological target: the molecule itself; experiment: calculated from the equilibrium constants; no agonist
Protocol: (§1) The ratios of molecules that exist as dimers vs. monomers (D/M ratios) in terms of the number of protomers were calculated from KD at various expression levels (number density of molecules) (FIG. 2-4e, f). […] When they dissociate into monomers, they will again form dimers, but the rate of dimer formation depends on the number density of the monomers (and thus the expression levels).
(§2) The ratios of the numbers of protomers that exist as dimers vs. monomers at different expression levels in the PM were calculated from the three dynamic equilibrium constants and listed.

[7] = biological target: the molecule itself; experiment: calculated from the equilibrium constants; after SNC-80
Protocol: as §1, §2

[8] = biological target: the molecule itself; experiment: colocalization durations; SNC-80 and FAM-Dpep-TAT present
[9] = biological target: T1, µ-type opioid receptor (MOR), rat, wild …; experiment: colocalisation index, two-colour single-molecule imaging in CHO-K1 cells
Protocol: For simple quantification of the tendencies of OPR heterodimer formation, we employed the colocalisation index, a parameter based on the pair cross-correlation function (PCCF of the green and magenta spots), which is a measure of finding molecule B (for example, a green spot) within a 100 nm radius circle around molecule A (for example, a magenta spot) relative to farther distances of 400-500 nm (as a negative control, the video frames in the green channel were rotated 180° before overlaying; Extended Data FIG. 1-2).

[10] = biological target: the molecule itself; experiment: inverse of the homodimer lifetime; after DAMGO
[11] = biological target: the molecule itself; experiment: calculated from the equilibrium constants; after DAMGO
Protocol: as §1, §2

[12] = biological target: the molecule itself; experiment: inverse of the homodimer lifetime; after U-50488
[13] = biological target: the molecule itself; experiment: calculated from the equilibrium constants; after U-50488
Protocol: as §1, §2

B1: Dpep(20-42)DM, soluble peptide with the N-terminal domain sequence aa20-42 of DOR (peptide)
peptide: SDTFPSAFPSASANASGSPGARS
notes: also called DpepDM(20-42); DpepDM
B1 gave a Kd [1] of less than 100 nM.

B2: SNAPf-DOR: rat DOR with the SNAPf tag protein at its N-terminus, expressed in the PM of CHO-K1 cells (Example 2) (receptor, not shown: small tags and cut ends)
chain: SGGGSGGSGGGSGGSGGGSGGMEPVPSARAELQFSLLANVSDTFPSAFPSASANASGSPGARSASSLALAIAITALYSAVCAVGLLGNVLVMFGIVRYTKLKTATNIYIFNLALADALATSTLPFQSAKYLMETWPFGELLCKAVLSIDYYNMFTSIFTLTMMSVDRYIAVCHPVKALDFRTPAKAKLINICIWVLASGVGVPIMVMAVTQPRDGAVVCTLQFPSPSWYWDTVTKICVFLFAFVVPILIITVCYGLMLLRLRSVRLLSGSKEKDRSLRRITRMVLVVVGAFVVCWAPIHIFVIVWTLVDINRRDPLVVAALHLCIALGYANSSLNPVLYAFLDENFKRCFRQLCRAPCGGQEPGSLRRPRQATARERVTACTPSDGPGGGAAA
modifications: SNAPf tag covalently labelled with SNAP-Surface 549 or SNAP-CF660R
notes: whole, on cells; Homodimer partner is the same molecule labelled in the other colour; also called WT DOR
For B2, the “Ca^2+ (FMax-Fb)/Fb; + Agonist + FAM-pep-TAT” value (shortened to “Ca^2+ (FMax-Fb)/Fb”) [2] was 2.84 (FMax-Fb)/Fb, the “% of copies existing as dimers at ˜1 copy/µm^2, before agonist” value (from here on “% of copies existing as dimers”) [3] was 17% and the koff [4] was 8 s⁻¹. The koff [5] was 3.62 s⁻¹, the “D/M ratio (protomers in dimers vs monomers) at 0.3 copies/µm^2” value (shortened to “D/M ratio … at 0.3 copies/µm^2”) [6] was 0.07 and the “D/M ratio (protomers in dimers vs monomers) at 1 copies/µm^2” value (“D/M ratio … at 1 copies/µm^2” for short) [6] was 0.21. For the same binder, the “D/M ratio (protomers in dimers vs monomers) at 3 copies/µm^2” value (from here on “D/M ratio … at 3 copies/µm^2”) [6] was 0.5, the “D/M ratio (protomers in dimers vs monomers) at 10 copies/µm^2” value (from here on “D/M ratio … at 10 copies/µm^2”) [6] was 1.17 and the “D/M ratio (protomers in dimers vs monomers) at 30 copies/µm^2” value (shortened to “D/M ratio … at 30 copies/µm^2”) [6] was 2.3. For the same binder, the “D/M ratio … at 0.3 copies/µm^2” value [7] was 0.15, the “D/M ratio … at 1 copies/µm^2” value [7] was 0.4 and the “D/M ratio … at 3 copies/µm^2” value [7] was 0.89. For the same binder, the “D/M ratio … at 10 copies/µm^2” value [7] was 1.92, the “D/M ratio … at 30 copies/µm^2” value [7] was 3.62 and the “fold of homodimer lifetime against wild-type DOR in the absence of the agonist” value [8] was roughly 1.5 fold.

B3: κ-type opioid receptor (KOR), rat, wild type, fluorescently tagged, expressed in the PM of CHO-K1 cells (Example 1) (receptor, UniProt P34975 1-380, looked up)
chain: MESPIQIFRGEPGPTCAPSACLLPNSSSWFPNWAESDSNGSVGSEDQQLEPAHISPAIPVIITAVYSVVFVVGLVGNSLVMFVIIRYTKMKTATNIYIFNLALADALVTTTMPFQSAVYLMNSWPFGDVLCKIVISIDYYNMFTSIFTLTMMSVDRYIAVCHPVKALDFRTPLKAKIINICIWLLASSVGISAIVLGGTKVREDVDVIECSLQFPDDEYSWWDLFMKICVFVFAFVIPVLIIIVCYTLMILRLKSVRLLSGSREKDRNLRRITKLVLVVVAVFIICWTPIHIFILVEALGSTSHSTAVLSSYYFCIALGYTNSSLNPVLYAFLDENFKRCFRDFCFPIKMRMERQSTNRVRNTVQDPASMRDVGGMNKPV
notes: whole, on cells; also called WT-KOR; κ-OPR; not shown: fluorescent tag protein
B3: no binding [9].

B4: SNAPf-MOR: rat MOR with the SNAPf tag protein at its N-terminus, expressed in the PM of CHO-K1 cells (Example 2) (receptor, not shown: small tags and cut ends)
chain: SGGGSGGSGGGSGGSGGGSGGMDSSTGPGNTSDCSDPLAQASCSPAPGSWLNLSHVDGNQSDPCGLNRTGLGGNDSLCPQTGSPSMVTAITIMALYSIVCVVGLFGNFLVMYVIVRYTKMKTATNIYIFNLALADALATSTLPFQSVNYLMGTWPFGTILCKIVISIDYYNMFTSIFTLCTMSVDRYIAVCHPVKALDFRTPRNAKIVNVCNWILSSAIGLPVMFMATTKYRQGSIDCTLTFSHPTWYWENLLKICVFIFAFIMPVLIITVCYGLMILRLKSVRMLSGSKEKDRNLRRITRMVLVVVAVFIVCWTPIHIYVIIKALITIPETTFQTVSWHFCIALGYTNSCLNPVLYAFLDENFKRCFREFCIPTSSTIEQQNSTRVRQNTREHPSTANTVDRTNHQLENLEAETAPLP
modifications: SNAPf tag covalently labelled with SNAP-Surface 549 or SNAP-CF660R
notes: whole, on cells; Homodimer partner is the same molecule labelled in the other colour; also called WT MOR
With B4 the “Ca^2+ (FMax-Fb)/Fb” value [2] was 2.78 (FMax-Fb)/Fb, the “% of copies existing as dimers” value [3] was 18% and the koff [4] was 8.47 s⁻¹. For the same binder, the koff [10] was 5.35 s⁻¹, the “D/M ratio … at 0.3 copies/µm^2” value [6] was 0.08 and the “D/M ratio … at 1 copies/µm^2” value [6] was 0.22. The “D/M ratio … at 3 copies/µm^2” value [6] was 0.54, the “D/M ratio … at 10 copies/µm^2” value [6] was 1.23 and the “D/M ratio … at 30 copies/µm^2” value [6] was 2.41. For the same binder, the “D/M ratio … at 0.3 copies/µm^2” value [11] was 0.06, the “D/M ratio … at 1 copies/µm^2” value [11] was 0.17 and the “D/M ratio … at 3 copies/µm^2” value [11] was 0.43. For the same binder, the “D/M ratio … at 10 copies/µm^2” value [11] was 1.02 and the “D/M ratio … at 30 copies/µm^2” value [11] was 2.03.

B5: SNAPf-KOR: rat KOR with the SNAPf tag protein at its N-terminus, expressed in the PM of CHO-K1 cells (Example 2) (receptor, not shown: small tags and cut ends)
chain: SGGGSGGSGGGSGGSGGGSGGMESPIQIFRGEPGPTCAPSACLLPNSSSWFPNWAESDSNGSVGSEDQQLEPAHISPAIPVIITAVYSVVFVVGLVGNSLVMFVIIRYTKMKTATNIYIFNLALADALVTTTMPFQSAVYLMNSWPFGDVLCKIVISIDYYNMFTSIFTLTMMSVDRYIAVCHPVKALDFRTPLKAKIINICIWLLASSVGISAIVLGGTKVREDVDVIECSLQFPDDEYSWWDLFMKICVFVFAFVIPVLIIIVCYTLMILRLKSVRLLSGSREKDRNLRRITKLVLVVVAVFIICWTPIHIFILVEALGSTSHSTAVLSSYYFCIALGYTNSSLNPVLYAFLDENFKRCFRDFCFPIKMRMERQSTNRVRNTVQDPASMRDVGGMNKPV
modifications: SNAPf tag covalently labelled with SNAP-Surface 549 or SNAP-CF660R
notes: whole, on cells; Homodimer partner is the same molecule labelled in the other colour; also called WT KOR
B5 was tested, and the “Ca^2+ (FMax-Fb)/Fb” value [2] was 2.46 (FMax-Fb)/Fb, the “% of copies existing as dimers” value [3] was 33% and the koff [4] was 6.71 s⁻¹. The koff [12] was 17.9 s⁻¹, the “D/M ratio … at 0.3 copies/µm^2” value [6] was 0.19 and the “D/M ratio … at 1 copies/µm^2” value [6] was 0.5. The “D/M ratio … at 3 copies/µm^2” value [6] was 1.08, the “D/M ratio … at 10 copies/µm^2” value [6] was 2.28 and the “D/M ratio … at 30 copies/µm^2” value [6] was 4.26. The “D/M ratio … at 0.3 copies/µm^2” value [13] was 0.07, the “D/M ratio … at 1 copies/µm^2” value [13] was 0.22 and the “D/M ratio … at 3 copies/µm^2” value [13] was 0.52. For the same binder, the “D/M ratio … at 10 copies/µm^2” value [13] was 1.2 and the “D/M ratio … at 30 copies/µm^2” value [13] was 2.35.

Reference: patent publication US20250368686A1 (OKINAWA INSTITUTE OF SCIENCE AND TECHNOLOGY SCHOOL, published 2025)
